Experiment [1] deals with T1, human 5T4-His protein (human, UniProt Q13641 32-355).
T1 construct: also called recombinant 5T4 protein (human 5T4-his tag); human 5T4 protein; not shown: His tag
T1 sequence (looked up): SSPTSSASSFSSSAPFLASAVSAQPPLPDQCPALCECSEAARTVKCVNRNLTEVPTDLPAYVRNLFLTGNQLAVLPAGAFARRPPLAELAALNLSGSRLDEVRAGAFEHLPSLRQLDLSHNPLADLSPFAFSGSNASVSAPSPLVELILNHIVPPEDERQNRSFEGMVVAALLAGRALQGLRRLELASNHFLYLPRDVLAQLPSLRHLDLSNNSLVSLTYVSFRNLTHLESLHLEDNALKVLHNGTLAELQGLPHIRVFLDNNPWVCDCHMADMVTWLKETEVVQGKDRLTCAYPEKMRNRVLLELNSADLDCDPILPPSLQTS
The experiment in a line: SPR Biacore, Protein A capture, 50 nM 5T4-His. As to the method:
The binding of the 159D5 humanized antibodies to recombinant 5T4 protein (human 5T4-his tag) was tested with Biacore using a capture method. The mAbs were captured using Protein A chip. 50 nM of human 5T4-his tag protein was injected over captured antibody for 3 mins at a flow rate of 30 μl/min. The antigen was allowed to dissociate for 600 s. All the experiments were carried out on a Biacore T200. Data analysis was carried out using the Biacore T200 evaluation software.
In general terms: SPR reads the build-up and loss of mass on a sensor chip optically.

The target in experiment [2] is T1, human 5T4-His protein. In words: ELISA, coated 5T4-His. The procedure: To evaluate the binding activity of 159D5 humanized antibodies to human 5T4, the 159D5 chimeric antibody along with 159D5 humanized mAbs were subjected to ELISA test.
Briefly, microtiter plates were coated with human 5T4-His protein at 1 μg/ml in PBS, 100 μl/well at 4° C. overnight, then blocked with 150 μl/well of 10% BSA. Serial dilutions of antibodies were added to each well and incubated for 1 hour at 37° C. The plates were washed with PBS/Tween and then incubated with Goat Anti-Human IgG-HRP for 30 mins at 37° C. After washing, the plates were developed with TMB substrate and analyzed by spectrophotometer at OD 450 nm. As shown in FIG. 14 and Table 12, most of the humanized antibodies bound to human 5T4 with high activity.
(In general: An ELISA detects its analyte on a solid surface through an enzyme-linked reagent.)

In experiment [3] the target is T2, human 5T4 expressed on cells (human, UniProt Q13641 32-420).
T2 construct: whole, on cells; also called CHOK1-hu5T4; CHO-K1-expressing human 5T4
T2 sequence (looked up): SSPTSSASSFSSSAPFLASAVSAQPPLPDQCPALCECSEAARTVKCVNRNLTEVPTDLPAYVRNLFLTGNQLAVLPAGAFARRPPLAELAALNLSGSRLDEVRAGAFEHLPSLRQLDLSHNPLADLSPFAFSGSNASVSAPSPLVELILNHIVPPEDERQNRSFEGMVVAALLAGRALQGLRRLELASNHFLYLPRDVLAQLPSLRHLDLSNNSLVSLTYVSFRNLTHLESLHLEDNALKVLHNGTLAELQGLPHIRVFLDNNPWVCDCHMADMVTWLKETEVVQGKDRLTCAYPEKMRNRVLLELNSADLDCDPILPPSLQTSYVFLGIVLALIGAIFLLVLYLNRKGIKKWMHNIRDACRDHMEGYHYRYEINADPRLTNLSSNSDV
The experiment in a line: flow cytometry, CHOK1-hu5T4 cells. Background: Flow cytometry measures light scatter and fluorescence of single cells or particles in a stream.

Experiment [4] has as its target T3, cynomolgus 5T4 protein (cynomolgus monkey, UniProt Q4R8Y9 35-355, limits assumed).
T3 construct: Coated protein in ELISA; the screening step names a cyno 5T4-His protein; also called cyno 5T4; recombinant cyno 5T4-His protein
T3 sequence (looked up): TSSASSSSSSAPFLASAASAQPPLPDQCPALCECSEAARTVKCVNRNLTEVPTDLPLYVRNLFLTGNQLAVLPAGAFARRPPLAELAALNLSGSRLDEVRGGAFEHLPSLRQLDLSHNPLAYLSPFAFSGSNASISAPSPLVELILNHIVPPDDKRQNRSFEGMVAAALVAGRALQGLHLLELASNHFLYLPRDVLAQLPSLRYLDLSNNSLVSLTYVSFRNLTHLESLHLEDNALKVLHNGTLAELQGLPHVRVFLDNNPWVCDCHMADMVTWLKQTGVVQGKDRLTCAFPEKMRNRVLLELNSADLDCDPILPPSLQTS
The experiment in a line: ELISA, coated antigen. As to the method:
(§1) ELISA testing was carried out to evaluate the binding of chimeric antibodies to human and cynomolgus, respectively. The antibody portion of naptumomab (NeoTX) that targets 5T4 (abbreviated as naptumomab in the present disclosure), was generated and used as a benchmark.
(§2) Briefly, microtiter plates were coated with human and cynomolgus 5T4 proteins at […] in PBS, 100 μl/well at 4° C. overnight, then blocked with 150 μl/well of 1% BSA. Serial dilutions of chimeric antibodies were added to each well and incubated for 1 hour at RT. The plates were washed with PBS/Tween and then incubate with mouse-anti-human IgG Fc antibody conjugated with Horse Radish Peroxidase (HRP) for 30 mins at RT. After washing, the plates were developed with TMB substrate and analyzed by spectrophotometer at OD 450 nm. All the 5T4 chimeric mAbs bound to human and cynomolgus 5T4 (FIG. 1-2 and Table 3).

The target of experiment [5] is T1, human 5T4-His protein. The experiment in a line: ELISA, coated antigen. As to the method: as §1, §2
For experiment [6], the target named is T1, human 5T4-His protein. In words: SPR Biacore, Protein A capture.

A word on the Kd: it is the free concentration of one partner at which half of the binding sites on the other are occupied at equilibrium, for simple one-to-one binding. High values mean lower affinity, low ones higher affinity. A word on the koff: it is a measure of how fast the partners let go of each other. The low end stands for a long-lived complex, the high end for a short-lived complex. By kon is commonly meant the rate constant with which the complex forms. Read a low kon as slow association. Broadly, the EC50 is the concentration that produces a half-maximal response. Usually EC50 (read off the curve) stands for the concentration needed to bring the measured effect to its halfway point.

B1: Hu159D5-4 (antibody, V domains shown)
VH: EVQLVESGGGVVQPGRSLRLSCAASGFTFSNFGMHWVRQAPGKGLEWVAYISSGSSTFYYADSVKGRFTISRDNSKNTLYLQMNSLRAEDTAVYYCARSPAYYRYGLDYWGQGTTVTVSS
VL: DIVMTQSPDSLAVSLGERATINCRASQSVSSSTFSYMHWYQQKPGQPPKLLIYSSSNLESGVPDRFSGSGSGTDFTLTISSLQAEDVAVYYCQHSWEIPYTFGGGTKVEIK
notes: humanized
In experiment [1], B1 gave a Kd of 7.07 nM, a koff of 0.000426 s⁻¹ and a kon of 60200 M⁻¹ s⁻¹. The response in experiment [2] was half-maximal at 0.094 nM (EC50).

B2: Hu159D5-11 (antibody, V domains shown)
VH: EVQLVESGGGVVQPGRSLRLSCAASGFTFSNFGMHWVRQAPGKGLEWVAYISSGSSTFYYADSVKGRFTISRDNSKNTLYLQMNSLRAEDTAVYFCARSPAYYRYGLDYWGQGTTVTVSS
VL: DIVMTQSPDSLAVSLGERATINCRASQSVSSSTFSYMHWYQQKPGQPPKLLIKSSSNLESGVPDRFSGSGSGTDFTLTISSLQAEDVAVYYCQHSWEIPYTFGGGTKVEIK
notes: humanized
In experiment [1], B2 yielded a Kd of 1.06 nM, a koff of 0.000273 s⁻¹ and a kon of 257000 M⁻¹ s⁻¹. For the same molecule, the EC50 in experiment [2] turned out to be 0.12 nM.

B3: Hu159D5-10 (antibody, V domains shown)
VH: EVQLVESGGGVVQPGRSLRLSCAASGFTFSNFGMHWVRQAPGKGLEWVAYISSGSSTFYYADSVKGRFTISRDNSKNTLYLQMNSLRAEDTAVYFCARSPAYYRYGLDYWGQGTTVTVSS
VL: DIVMTQSPDSLAVSLGERATINCRASQSVSSSTFSYMHWYQQKPGQPPKLLIYSSSNLESGVPDRFSGSGSGTDFTLTISSLQAEDVAVYYCQHSWEIPYTFGGGTKVEIK
notes: humanized
For the molecule B3, in experiment [1], binding was put at a Kd of 9.31 nM, the koff amounted to 0.000488 s⁻¹ and the kon was determined as 52400 M⁻¹ s⁻¹. In experiment [2], this molecule returned an EC50 of 0.094 nM.

B4: Hu159D5-12 (antibody, V domains shown)
VH: EVQLVESGGGVVQPGRSLRLSCAASGFTFSNFGMHWVRQAPGKGLEWVAYISSGSSTFYYADSVKGRFTISRDNSKNTLYLQMNSLRAEDTAVYFCARSPAYYRYGLDYWGQGTTVTVSS
VL: DIVLTQSPDSLAVSLGERATINCRASQSVSSSTFSYMHWYQQKPGQPPKLLIKSSSNLESGVPDRFSGSGSGTDFTLTISSLQAEDVAVYYCQHSWEIPYTFGGGTKVEIK
notes: humanized
In experiment [1], B4 registered a Kd of 1.21 nM, a koff of 0.000267 s⁻¹ and a kon of 222000 M⁻¹ s⁻¹. In experiment [2], the EC50 is 0.12 nM.

B5: Hu159D5-6 (antibody, V domains shown)
VH: EVQLVESGGGVVQPGRSLRLSCAASGFTFSNFGMHWVRQAPGKGLEWVAYISSGSSTFYYADSVKGRFTISRDNSKNTLYLQMNSLRAEDTAVYYCARSPAYYRYGLDYWGQGTTVTVSS
VL: DIVLTQSPDSLAVSLGERATINCRASQSVSSSTFSYMHWYQQKPGQPPKLLIKSSSNLESGVPDRFSGSGSGTDFTLTISSLQAEDVAVYYCQHSWEIPYTFGGGTKVEIK
notes: humanized
In experiment [1], B5 had a dissociation constant Kd of 0.71 nM, a koff of 0.000179 s⁻¹ and an association rate constant (kon) of 252000 M⁻¹ s⁻¹. This molecule also yielded an EC50 in experiment [2] of 0.1 nM.

B6: trispecific antibody with anti-5T4 portion of Hu393E9-45-P2 (protein, part only; not given: other two arms, Fc, linkers, format, not shown: another chain or arm of the molecule; a dimerising Fc or GST; small tags and cut ends)
VH: EVQLVESGGGLVQPGGSLRLSCAASGFTFTDYYMSWVRQAPGKGLEWVGFIRNKGNGYTTEYSASVKGRFTISRDNSKSSLYLQMNSLKTEDTAVYYCARYRGNPHYAMDYWGQGTLVTVSS
VL: EIVLTQSPGTLSLSPGERATLSCRASESVEFYGTSFLQWYQQKPGQAPRLLIYGASNVESGIPDRFSGSGSGTDFTLTISRLEPEDIAVYFCQQSRKVPSTFGGGTKVEIK
Molecule B6 gave an EC50 (read off the curve) in experiment [3] of 2 nM.

B7: trispecific antibody with anti-5T4 portion of Hu393E9-62-P2 (protein, part only; not given: other two arms, Fc, linkers, format, not shown: another chain or arm of the molecule; a dimerising Fc or GST; small tags and cut ends)
VH: EVQLVESGGGLVQPGGSLRLSCAASGFTFTDYYMSWVRQAPGKGLEWVGFIRNKGNGYTTEYSASVKGRFTISRDNAKSSLYLQMNSLRAEDTAVYYCARYRGNPHYAMDYWGQGTLVTVSS
VL: EIVLTQSPATLSVSPGERATLSCRASESVEFYGTSFLQWYQQKPGQAPRLLIYGASNVESGIPARFSGSGSGTEFTLTISSLQSEDIAVYFCQQSRKVPSTFGGGTKVEIK
Turning to B7, the EC50 (read off the curve) in experiment [3] was 2 nM.

B8: 37G6 chimeric antibody (antibody, V domains shown)
VH: QVQLQQPGAELVKPGASVKMSCKASGYTFTSYWITWVKQRPGQGLERIGDIYPGSGTINYNEKFKSKATLTVDTSSSTAYMQLSSLTSEDSAVYCCARSDGNYYFDYWGQGTTLKVSS
VL: QIVLSQSPAILSASPGEKVTMTCRASSSVNYMHWYQQKPGSSPKPWIYATSNLASGVPVRFSGSGSGTSYSLTISRVEAEDAATYYCQQWSSNPPTFGGGTKLEIK
Molecule B8 returned an EC50 in experiment [4] of 0.28 nM. Further, in experiment [5], the EC50 worked out at 0.13 nM. Moreover, in experiment [6], the Kd is 0.59 nM, the koff was 0.000486 s⁻¹ and the kon was 823000 M⁻¹ s⁻¹.

For the origin of these results see patent publication US20250154277A1 (CONCEPT TO MEDICINE BIOTECH, published 2025).
